Assay results as given in patent US20220143185A1, “ORALLY ACTIVE SMALL MOLECULE INHIBITOR OF PAI-1” (Northwestern University, priority 2019, published 2022).
Each block holds one molecule with its values, some of them ahead of it.

What was measured:
PCSK9 [1] = biological target: T1, PCSK9 (Homo sapiens, UniProt Q8NBP7); experiment: Plasma PCSK9 and PAI-1 levels in hypercholesterolemic patients treated with PCSK9 monoclonal antibodies; format: in vivo; parameters: from tissue; host or cells: plasma of hypercholesterolemic patients; settings: before vs during treatment; for plasma PAI-1 levels: n=28, p=0.0029
Experimental: Plasma samples from hypercholesterolemic patients were obtained from the OHSU Center for Preventive Cardiology Registry and Biorepository, approved by OHSU Institutional Review Board (17329).
Total cholesterol was quantified in the murine plasma using an enzymatic determination (Pointe Scientific, Cat #C7510). The lipoprotein profile of the murine plasma samples was assessed running a fast-phase liquid chromatography (FPLC), in brief 100 μL of plasma (from one animal or a pool of several samples of the same conditions) were loaded to a Superose 6 column (GE HealthCare, Cat #29-0915-96) at a flow rate of 0.5 mL/min in running buffer (0.15M NaCl, 0.01M Na2HPO4 and 1 mM EDTA). Fractions were collected every minute for 41 minutes and analyzed for cholesterol concentrations as described above. Murine plasma PCSK9 levels were determined using an ELISA kit (MBL International, Cat #CY-80781). Murine PAI-1 levels were quantified using an ELISA kit (Molecular Innovations, Cat #MPAIKT-TOT). Murine PAI-1 activity levels were quantified by ELISA (Molecular Innovations, Cat #MPAIKT). Human PAI-1 levels were quantified by ELISA (Molecular Innovations, Cat #HPAIKT-TOT).
PAI-1 and PCSK9 levels were also quantified in plasma samples obtained from a human cohort with and without heart failure with preserved ejection fraction (HFpEF). There was again a positive correlation between PAI-1 and PCSK9 levels in these patients, similar to that in mice and in the Amish kindred (FIG. 19D, p<0.0001; R=0.351).

PCSK9 [2] = biological target: T1, PCSK9

total plasma PCSK9 levels (PCSK9 [1]): large increase
plasma PAI-1 levels (PCSK9 [1]): significant reduction
Molecule: alirocumab

Molecule: recombinant human low molecular weight urokinase
proteolytic degradation of PCSK9 in vitro (Western blot for PCSK9, silver stain) (PCSK9 [2]): efficiently promoted the proteolytic degradation of recombinant human PCSK9

total plasma PCSK9 levels (PCSK9 [1]): large increase
plasma PAI-1 levels (PCSK9 [1]): significant reduction
B1: evolocumab (antibody, chains of the INN, looked up, V domains shown)
VH: EVQLVQSGAEVKKPGASVKVSCKASGYTLTSYGISWVRQAPGQGLEWMGWVSFYNGNTNYAQKLQGRGTMTTDPSTSTAYMELRSLRSDDTAVYYCARGYGMDVWGQGTTVTVSS
VL: ESALTQPASVSGSPGQSITISCTGTSSDVGGYNSVSWYQQHPGKAPKLMIYEVSNRPSGVSNRFSGSKSGNTASLTISGLQAEDEADYYCNSYTSTSMVFGGGTKLTVL
